Experimental data published in the supplement of paper PMC9170038.

system: K4 kissing-loop RNA reporter; assay: apparent KD of K4 kissing-loop reporter; higher = weaker reporter binding; settings: Eterna round: R107; input ligand: FMN 200 uM
Description: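 RNA-MaP round R107: designed RNA switches with theophylline, tryptophan, arginine or FMN aptamers are transcribed on-chip within common flanks. They are titrated with a labelled K4 kissing-loop RNA reporter in RNA-MaP buffer (100 mM Tris pH 7.5, 80 mM KCl, 4 mM MgCl2), without ligand or with the indicated ligand. Median apparent KD per design.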
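Note: bound reporter read as fluorescence of individual clusters on recovered sequencing chips by microscopy, with normalized cluster intensities fitted with a binding model.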

Sequence | apparent KD of K4 kissing-loop reporter
AAAUAGAUCAGUCACCCAGUGAUGUUGGAAGGAGCGUGCGAAAGCACAGGUAGGUCGCCAGAAUAAAAGUGGCUGAUCAAAAUAA | 512 nM
CAUACGCAUGGAGGAUAUGAGAAUUCUCAUGUCAUUUAAUAUUCUCAGUGAUGUUGAGGAUGUGGCUCAGAAGGCCAUGUGUAUG [Ex FMN B 21] | 205 nM
GGCUAGACUUAGCUAGGUACAUAAUACGAUACCAGUCUAGAAAUAGACCCUUGGCAGCGUAGGCAGUGAUGUUGCCACUAGCUGA [Theo B SS t7] | 104 nM
CGGCCGUUAUGAGAUACCAGAGUGGCGACCAGUGAUGUUGGUCGACGCUUGCGGUCGUCUCUCCCUUGGCAGCUUAGUACGAAAG [Inisar] | 97.4 nM
ACGGCGCUGGAACCAGUAAUGGGAAGAAUGCGAGGACCGGUACGGCCGCCACUCGCUUCCAGUGAUGUUGGAAGUGAGCCAACAA [Geerzaedre] | 272 nM
UAAGAAUAGCAUGCAGUGAUGUUGCAUGUCCGAGGACCGGUACGGCCGCCACUCGAGUCCUCGAACAUGCACCGAGGAAUAACAA [#19 K4 Tryptophan A Same State] | 108 nM
CGGCGGAGUGAUGUUCCACCUACUGCGGAUACCAGCUUUGCCAGAGGCCCUUGGCAGCCGCACGGCUCAGUGAUGUUGGGUUGCG [Same State Theophylline A G12] | 237 nM
ACGUCCGGGUUAAUCGUGGGCGUGGUGGAUACCAGUUCUUCAAUGAACCCUUGGCAGCCACGUGAGUGAUGUUCACGUGCGAUGA [#15 K4 Theophylline A Exclusion] | 98.7 nM
GUAUCGCUAGGAGGAUAUUUCAAUUUGACUCUUUGAGUUAAUACGGAGUGAUGUUCCGUUUUACGGAAAGAAGGCCUAGUGAUAC [FMN B 14] | 115 nM
AAUAUGAAGCAGUGAUGUUGCUUAUGAGAAGGAGCGCACGAAAGUGCAGGUAGGUCGCUCAGCCAAGUGGACGAAAACGUCCACA [whbob_SS_Arginine_A_sa107] | 98.3 nM
UGAUAGGACAGAAGGAGCGGAAGUGAUGUUUCCAAAAGGAUAAGGUGUCAAAAGACACCCUUCCAGGUAGGUCGCUGUCCUAUCU [ArgBX 13 #Palindromic #SwitchBubble #StaticStem] | 148 nM
GUAUGUGGAAACACGUACUUGUAUCCUAGGAAGGAUAUGCGGAAACGCAGAAGGUCCACCGGCGAGUUUAUCCAGUGAUGUUGGA [Ex FMN A 10] | 260 nM
CAGUUCCGUAGUGAUGUUACGAUCUCUGAUACCAGACAACUCUAAGUCCCUUGGCAGCAGUCAUUUUGCUUAAUAUUUACUCAAA [#08 K4 Theophylline A Exclusion] | 126 nM
CCUUUAGGCUCGGCCGCCACUCCAGUGAUGUUGGAGGUGCGUACAGAGCUAGAAAGCGUUAUCAGGAGGACCGGGAGUUUUAACG [Leorte] | 98.3 nM
GGCAUGGUGACGCGGCUGCCAUACGCUUGGGAGGAUAUGUUUCGUGACAGAAGGCCCAGUGAUGUUGGGUCUGUUCAAAAGGACU [Arisus] | 659 nM
AGAUUCGACACGGCCGCCACUUCCGGUGGCUGGUGUCAUGGUGCGCGUGAGUGAUGUUUAUGUGGGAGGACCGGGUGUUGAGUCU [whbob_Ex_Tryp_B_w42] | 616 nM

Sequence | apparent KD of K4 kissing-loop reporter
GGGAGAAGAGCGGCCGCCACUCAGAAAGAAGAAGAAUAUAGUGAUGUUAUAUAGGAAAGGAAGAAGAGGACCGGGCUUAAGAGGG [#18 K4 Tryptophan B Same State] | 144 nM
GGGUUGAGCGGAAGGAGCGGCUGAACCAGUGAUGUUGGUUAAUCCAAGUGAUGUUGGAAAAGCCAGGUAGGUCGCCGCUUUAUCC [Same State Arg B GF 3] | 979 nM
GGAUAGGACAGAGGAUAUGGUAGUGAUGUUACCAAACUGGUUACUCUUGUCAGAAAACUGGCAUCUCCAGAAGGCUGUCCUAUCG [KL-XFMN-B10] | 594 nM
AGGUACAAAAGUACCGCUAGAUCCACGGAAGGAGCGCGCGAAAGCGCAGGUAGGUCGCCGGGCAGUGAUGUUGCCGGAUCUAGCA [Omei KL Arginine A SS A v7] | 134 nM
CUGCCUCACUCGGCCGCCACUGUAUAAAUGUGACAGUGAUGUUGUCGUCGGAAAGGGCACUUAGGCAGGACCGGGAGUUUCAGGC [theeternabot_exclusion_KL_Trp_B_20] | 837 nM
AGACUACCACACUGUCAAUAGACAGUGAGCUAGGAUAUGCUGAUAAGCAGAAGGAGUGAUGUUCCUCGGUAGUCAAUAAAAUAAU [FmnAX 13 G29+C67] | 373 nM
ACGUCACGUAAACUCGUGGUUUCGAUCGAUACCAGUAGCGAGAGUUACCCUUGGCAGCGACAUGAGUGAUGUUCAUGUACGAAGA [KL-XTheoA1] | 101 nM
AGCGCCUAAGCCGAUACCAGAAACGCGGUGCGUCGCACGAUUAACUAGGAAAGUGAUGUUUUCCCUUGGCAGCGGGACCUGUGAG [theeternabot_exclusion_KL_Theo_B_11] | 119 nM
GGAUGCAUUUUGGAUACCAGUCUAGUGAUGUUAGACUGAUAAUAACGGGCAGCGUUGGCAGACCCUUGGCAGCCAAAAUACUUAA [theeternabot_exclusion_KL_Theo_B_33] | 62.2 nM
GCGCGGCACAGUGAUGUUGUGCCUCGGAGACGAGGACCGGUACGGCCGCCACUCGUCCGCGCAGCUGAGGCAAAAGCCUCGGCAA [Omei KL Tryp A SS B v4] | 382 nM
CCCGCGGCGGGAAACCGUCGCGGGAAGGAAGGAGCGGCGAAGAAGCCAGGUAGGUCGCCUAUUGACAGUGAUGUUGUUAUAUAGA [#11] | 226 nM
AGAGUUAUGCGAGGAUAUGCAGUUAGUACUCAAAGAGUACUAACGGCAGAGUGAUGUUCUGUGAAAGCAGAAGGUGCAUAACUCA [Omei KL FMN B SS B v8] | 195 nM
UAGUCCUAGUGAUCGUUAUCACGUGGUGGGCGAGGACCGGUACGGCCGCCACUCGACUAUGCAGUGAUGUUGCAAUCCGGACAAU [Exclusion - Tryptophan A (Freestyle 15)] | 294 nM
ACGCCGAGGACGGCCGCCACUAUGACGAAGUCCGUUCCUAUUACUGCGCGAGUGAUGUUCACGACUAGGACCGGGUCUAUGAGCU [theeternabot_exclusion_KL_Trp_B_28] | 775 nM
AUUAUCAAUUUAUUAUAUAACUUUUCAGAAGGAGCGUGGAAGUACACAGGUAGGUCGCUGAAUAUAGGACUAGUGAUGUUAGUUA [JR_Nu_SSArginiA_Sub024] | 236 nM
UGAUAGGACAGAAGGAGCGGUAGUGAUGUUGCCAAAAGGAUAAGGUGUCAAAAGACACCCUGCCAGGUAGGUCGCUGUCCUAUCU | 126 nM

same assay, conditions: Eterna round: R107; input ligand: arginine 13.2 mM

Sequence | apparent KD of K4 kissing-loop reporter
AAAUAGAUCAGUCACCCAGUGAUGUUGGAAGGAGCGUGCGAAAGCACAGGUAGGUCGCCAGAAUAAAAGUGGCUGAUCAAAAUAA | 358 nM
CAUACGCAUGGAGGAUAUGAGAAUUCUCAUGUCAUUUAAUAUUCUCAGUGAUGUUGAGGAUGUGGCUCAGAAGGCCAUGUGUAUG [Ex FMN B 21] | 325 nM
GGCUAGACUUAGCUAGGUACAUAAUACGAUACCAGUCUAGAAAUAGACCCUUGGCAGCGUAGGCAGUGAUGUUGCCACUAGCUGA [Theo B SS t7] | 144 nM
CGGCCGUUAUGAGAUACCAGAGUGGCGACCAGUGAUGUUGGUCGACGCUUGCGGUCGUCUCUCCCUUGGCAGCUUAGUACGAAAG [Inisar] | 88.2 nM
ACGGCGCUGGAACCAGUAAUGGGAAGAAUGCGAGGACCGGUACGGCCGCCACUCGCUUCCAGUGAUGUUGGAAGUGAGCCAACAA [Geerzaedre] | 275 nM
UAAGAAUAGCAUGCAGUGAUGUUGCAUGUCCGAGGACCGGUACGGCCGCCACUCGAGUCCUCGAACAUGCACCGAGGAAUAACAA [#19 K4 Tryptophan A Same State] | 79.6 nM
CGGCGGAGUGAUGUUCCACCUACUGCGGAUACCAGCUUUGCCAGAGGCCCUUGGCAGCCGCACGGCUCAGUGAUGUUGGGUUGCG [Same State Theophylline A G12] | 162 nM
ACGUCCGGGUUAAUCGUGGGCGUGGUGGAUACCAGUUCUUCAAUGAACCCUUGGCAGCCACGUGAGUGAUGUUCACGUGCGAUGA [#15 K4 Theophylline A Exclusion] | 83.3 nM
